In the supplement of paper PMC10567573:
± gives the standard deviation.

Experiment: protein stability index of a GFP-peptide fusion (GPS, HEK-293T) (PSI 1-6); higher = more stable
Settings: c terminus: a fixed tail appended
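Further: 24-mer peptide tiles fused after GFP, lentivirally expressed, FACS-sorted into six equal bins by GFP/DsRed ratio, decoded by Illumina sequencing, PSI is the read-weighted mean bin number.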

Sequence | protein stability index (treatment: DMSO) | protein stability index (treatment: MLN4924 1 uM, 8 h)
MELQKGKGAAAAAAASGAAGGGGG [INTS3] | 5.19 ± 0.43 | 5.26 ± 0.36
HVSDEDNNADLCLTDDKQVLNTQG [DLC1] | 5.34 ± 0.23 | 5.46 ± 0.13
CELAQDKEAAEAIEAEGATAPLTE [CTNNB1] | 5.49 ± 0.41 | 5.53 ± 0.23
RQKREAAARKKYNLLQDSSTSDSD [C18orf25] | 5.17 ± 0.25 | 5.18 ± 0.15
LNMAKKSVDIVSSHWDLNHTHPSA [PLD5] | 3.1 ± 0.3 | 3.2 ± 0.28
NIWASQSVLSACDNLSDLVMVRWN [IQUB] | 2.14 ± 0.11 | 2.27 ± 0.46
LGSPYGQPPRFPVPHNGSSEATLP [PDLIM4] | 4.52 ± 0.31 | 4.6 ± 0.22
VYFKRFYARYSLKSIDPVLMAPTC [CCNC] | 3.11 ± 1.3 | 2.13 ± 0.32
AMYIDTEGTFRPERLLAVAERYGL [RAD51] | 2.37 ± 0.19 | 2.39 ± 0.27
HLRPELRSQMQGPRTRARLGANEV [KLHL12] | 4.23 ± 0.043 | 4.22 ± 0.44
SGLGSCLPGSYLSSECHTSGFVGS [KRT36] | 2.62 ± 0.32 | 2.69 ± 0.23
QAHELAYDPNYMSPFAQFACDNGL [PPTC7] | 3.32 ± 0.12 | 3.13 ± 0.41
QSYPSQDKPLPPPPPGSLSRTQEP [SOAT2] | 5.2 ± 0.41 | 5.08 ± 0.24
LLQHLLEACGRCEEVPEAYVDIHT [PYCR3] | 2.1 ± 0.48 | 2.42 ± 0.66
TDNGTFNLSRGQTPLTEGSEDLDG [RETREG3] | 5.25 ± 0.26 | 5.45 ± 0.25
APSCAIMISTYEFGKSFFQRLNQD [SLC25A39] | 2.47 ± 0.86 | 2.06 ± 0.33
LLLEPGSLYILRGSARYDFSHEIL [ALKBH7] | 2.58 ± 1.2 | 2.58 ± 1.3
SCPFFETSAAYRYYIDDVFHALVR [RIT1] | 2.41 ± 0.36 | 2.54 ± 0.38
SDSMTDVPVDTGVAARTPAVEGLT [TPD52L2] | 5.3 ± 0.29 | 5.26 ± 0.15
RANPCLSSSNEHAAPAAKTRKQAA [ELOA2] | 5.08 ± 0.16 | 5.18 ± 0.26
TCTLLLLYSLAPTMGAVVLSSTLL [MFSD9] | 3.22 ± 0.52 | 3.17 ± 0.28
TPSQEHLKHQTVYRLLKCAPRGKN [FEM1A] | 3.61 ± 0.15 | 3.62 ± 0.12

Sequence | protein stability index (treatment: DMSO) | protein stability index (treatment: MLN4924 1 uM, 8 h)
VENRVVEEAKGLLDKVKDGGYRPA [ZBED1] | 4.82 ± 0.13 | 4.94 ± 0.094
NKNEVFYQCPDQMARNPAAIDMFI [FBXO3] | 2.42 ± 0.17 | 2.65 ± 0.48
IVDKCTELLREGRASATTTITTAA [ZBTB22] | 3.78 ± 0.1 | 3.74 ± 0.18
HLMPFRQHCRQSLASRIRSNKKML [KLHL14] | 2.39 ± 0.11 | 2.34 ± 0.1
WFGASVLSLLELLELLLDASALTL [SCNN1D] | 2.54 ± 0.74 | 2.15 ± 0.31
VNVTIHFRLKTINLQSLINNEIPD [MCOLN1] | 3.28 ± 0.25 | 3.21 ± 0.25
VFITILIIALIALSVGQYNCPGQY [CD69] | 2.6 ± 0.38 | 2.61 ± 0.57
SYVHILSAILQFPSTLGRCKAFST [OR10K2] | 3.38 ± 0.61 | 3.01 ± 0.63
FQLPERGSRLCLYEDGTELTEDYF [DFFB] | 3.71 ± 0.44 | 3.7 ± 0.47
DPIVRPLWWIAPGDETAHRIDSQF [MYORG] | 3.23 ± 0.18 | 3.24 ± 0.27
AECALVSLKEAEFYDKQLKVLLSG [ZFYVE21] | 2.86 ± 0.24 | 3.05 ± 0.48
CGDVHGQFHDLMELFRIGGKSPDT [PPP2CA] | 2.69 ± 0.34 | 2.84 ± 0.15
MAMQMQLEANADTSVEEESFGPQP [RAD51] | 5.15 ± 0.25 | 5.26 ± 0.13
SHLCSCLAMLALLSPLSLAQYDSW [LOXL2] | 3.02 ± 0.29 | 2.96 ± 1.2
EILSESVVPDVRSVVTTARMQVLK [SMARCE1] | 2.87 ± 0.56 | 2.54 ± 0.38
GKKYNTMLGYKRHLALHAASSGDL [PLAGL1] | 3.15 ± 0.12 | 3.28 ± 0.27
FRHLRLQYIISDLASARIIEQDAV [GMCL1] | 2.6 ± 0.73 | 2.44 ± 0.48
QWIEVDARRLTRFTGVITQGRNSL [CPXM2] | 2.91 ± 0.6 | 2.52 ± 0.17
PPNQQMSPSPMSHGHYSMHCLHSA [DLX1] | 3.1 ± 0.31 | 3.13 ± 0.15
PVGSCCSSPAGLSREYKLVMLGAG [RIT1] | 2.54 ± 0.44 | 2.24 ± 0.35
TSDASFHPAFLPQRQAIKGAFYRR [KCNG1] | 3.62 ± 0.097 | 3.66 ± 0.13
NSHQDFWTVWSGNRASLYSFPEPE [PRAME] | 2.49 ± 0.19 | 2.67 ± 0.38

Sequence | protein stability index (treatment: DMSO) | protein stability index (treatment: MLN4924 1 uM, 8 h)
ESRQTEVVIRDIDERAMELLIDFA [KLHL20] | 2.9 ± 0.095 | 2.96 ± 0.24
EALVRTVLRAGDREDITEPAICAL [CTNNB1] | 3.45 ± 0.29 | 3.6 ± 0.51
GVGAVPGPGTPTGPSLPSKRESPG [ZBTB22] | 5.41 ± 0.29 | 5.21 ± 0.14
GLDPCLLEDELDKSVQGTGLAFIA [SLC6A17] | 3.28 ± 0.31 | 3.28 ± 0.44
DILWEHLEQMIKENQEKTEDQYEE [ETS2] | 5.02 ± 0.21 | 5.22 ± 0.2
IQEAQSAWKDDFALNSMLRRRFRE [YJU2B] | 3.53 ± 0.14 | 3.69 ± 0.25
AGLSLLSPSVMRLVHTQEPGEWLE [ALKBH7] | 2.71 ± 0.38 | 2.79 ± 0.24
ALRGAAVDEYFRQPVVDTFDIRIL [CARM1] | 2.48 ± 0.45 | 2.6 ± 0.27
LTQPLQGGTPHCEPCQLPSESPGS [DNAAF3] | 5.17 ± 0.2 | 5.12 ± 0.12
SSGHQNRRFSSEDLEDPLGGLLSY [FBF1] | 3.6 ± 0.48 | 3.89 ± 0.36
ARGSIVATYIFIFIGETLLSMNWA [SPNS1] | 3.4 ± 0.55 | 2.88 ± 0.55
NGEYVPWLYCYDPVMDVWARKQDM [KLHL14] | 2.49 ± 0.09 | 2.57 ± 0.21
ILIQHQKAKHFKCHICHKKLYTGP [ZNF207] | 2.44 ± 0.12 | 1.88 ± 0.38
NENMAAKKKSVAMHTNYLSACSFT [GNB5] | 3.09 ± 0.21 | 3.25 ± 0.3
PPLPTYHVLLEGEGLGQSLGNFKD [TRIM29] | 3.8 ± 0.085 | 3.7 ± 0.14
MGRKRLITDSYPVVKRREGPAGHS [POLD4] | 3.33 ± 0.32 | 3.2 ± 0.29
TVGGEERVSRKPTAAMRCMCPLYD [GAN] | 3.3 ± 0.21 | 3.46 ± 0.49
LEATVKKLEESKQLLKNNEKLITW [SASS6] | 2.73 ± 1.2 | 3.44 ± 0.62
GVGGAERLVLDAALALQARGCSVK [ALG2] | 3.22 ± 0.24 | 3.28 ± 0.48
MWYPEIKHFCPRTPVILVGCQLDL [RHOBTB1] | 2.91 ± 0.57 | 2.6 ± 0.65
LPLERDAESFLLKSPIAPCSLDKR [CDC25B] | 4.35 ± 0.18 | 4.35 ± 0.15
